In article PMC2141627:

Biological target: laminin 5 (α3β3γ2) purified from SCC25 cell culture medium (human (endogenous in SCC25)) (UniProt Q16787)
Experiment: rotary shadowing electron microscopy

In the case of “NC-1 domain of type VII collagen purified from human amnion (from UniProt Q02388 17-2944) (domain or fragment)”, the stoichiometry N is reported as 1.
